What follows are sequences tested on Escherichia coli TOP10 (assay: shrunken log2 fold change of peptide-encoding DNA abundance (4.5 h post-induction vs induction); higher = less antimicrobial activity (less host growth inhibition)). Details: time post-induction: 4.5 h; library: site-saturation at positions 5, 18, 19, 20.
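Note: peptides expressed intracellularly from a pBAD plasmid library in pooled LB shake-flask culture, induced with 0.3% L-arabinose, DNA abundance read by NGS, three biological replicates, DESeq2 with apeglm shrinkage.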

Sequence | shrunken log2 fold change
RRIRGRPPRLPRPRPRPEVGPRP | 1.52
RRIRCRPPRLPRPRPRPWQRPRP | 0.109
RRIRGRPPRLPRPRPRPKGKPRP | 1.16
RRIRARPPRLPRPRPRPSGAPRP | 0.38
RRIRMRPPRLPRPRPRPGAAPRP | 2.24
RRIRGRPPRLPRPRPRPAIMPRP | 1
RRIRWRPPRLPRPRPRPDCAPRP | 0.97
RRIRNRPPRLPRPRPRPANAPRP | 0.259
RRIRLRPPRLPRPRPRPKQFPRP | 0.0426
RRIRGRPPRLPRPRPRPPTHPRP | 0.617
RRIRGRPPRLPRPRPRPQFAPRP | 0.273
RRIRQRPPRLPRPRPRPAVEPRP | 0.149
RRIRTRPPRLPRPRPRPQSHPRP | -0.207
RRIRERPPRLPRPRPRPNQRPRP | -0.0506
RRIRVRPPRLPRPRPRPMSWPRP | 0.0132
RRIRNRPPRLPRPRPRPAFHPRP | -0.436
RRIRRRPPRLPRPRPRPINSPRP | -0.314
RRIRYRPPRLPRPRPRPCTRPRP | -0.111
RRIRCRPPRLPRPRPRPFQYPRP | -1.21
RRIRGRPPRLPRPRPRPYGTPRP | -0.0646
RRIRHRPPRLPRPRPRPPCTPRP | 0.0262
RRIRERPPRLPRPRPRPSSLPRP | -0.223
RRIRNRPPRLPRPRPRPTMKPRP | -0.368
RRIRQRPPRLPRPRPRPWFGPRP | -0.352
RRIRMRPPRLPRPRPRPPFWPRP | 1.2

Sequence | shrunken log2 fold change
RRIRRRPPRLPRPRPRPMYLPRP | -0.0501
RRIRERPPRLPRPRPRPQDAPRP | 0.0745
RRIRNRPPRLPRPRPRPTRLPRP | 0.2
RRIRPRPPRLPRPRPRPFKNPRP | -0.615
RRIRIRPPRLPRPRPRPQHTPRP | -1
RRIRKRPPRLPRPRPRPHHRPRP | -0.0531
RRIRLRPPRLPRPRPRPEKGPRP | 0.693
RRIRERPPRLPRPRPRPSVCPRP | -0.0246
RRIRDRPPRLPRPRPRPDAKPRP | 0.162
RRIRTRPPRLPRPRPRPHDTPRP | -0.213
RRIRLRPPRLPRPRPRPMCTPRP | -0.0698
RRIRMRPPRLPRPRPRPTQFPRP | 0.178
RRIRARPPRLPRPRPRPHVVPRP | -0.288
RRIRVRPPRLPRPRPRPATPPRP | 0.35
RRIRWRPPRLPRPRPRPFSFPRP | -0.067
RRIRTRPPRLPRPRPRPPQRPRP | 0.577
RRIRERPPRLPRPRPRPHTIPRP | -0.217
RRIRRRPPRLPRPRPRPVYPPRP | -0.284
RRIRMRPPRLPRPRPRPTEPPRP | 0.383
RRIRKRPPRLPRPRPRPVACPRP | -0.0228
RRIRTRPPRLPRPRPRPNHMPRP | -0.792
RRIRQRPPRLPRPRPRPDQTPRP | -0.0116
RRIRARPPRLPRPRPRPVFLPRP | 1.14
RRIRDRPPRLPRPRPRPWPAPRP | 0.308
RRIRQRPPRLPRPRPRPLWAPRP | 0.00344

Sequence | shrunken log2 fold change
RRIRMRPPRLPRPRPRPTFMPRP | 0.154
RRIRTRPPRLPRPRPRPHWGPRP | 0.229
RRIRKRPPRLPRPRPRPSMLPRP | -0.0569
RRIRIRPPRLPRPRPRPPQIPRP | -0.157
RRIRQRPPRLPRPRPRPLCQPRP | -0.304
RRIRPRPPRLPRPRPRPPEVPRP | -0.0265
RRIRKRPPRLPRPRPRPQCNPRP | -0.0696
RRIRYRPPRLPRPRPRPRFLPRP | -0.42
RRIRARPPRLPRPRPRPYHCPRP | -0.0366
RRIRKRPPRLPRPRPRPINLPRP | -0.00204
RRIRMRPPRLPRPRPRPVDWPRP | 1.21
RRIRYRPPRLPRPRPRPMACPRP | -0.000921
RRIRIRPPRLPRPRPRPENPPRP | -0.695
RRIRPRPPRLPRPRPRPQSIPRP | -0.105
RRIRARPPRLPRPRPRPLAMPRP | 0.474
RRIRYRPPRLPRPRPRPKCPPRP | 0.137
RRIRMRPPRLPRPRPRPNDLPRP | 0.0853
RRIRHRPPRLPRPRPRPPLRPRP | 0.287
RRIRSRPPRLPRPRPRPGWCPRP | 0.0616
RRIRMRPPRLPRPRPRPSPWPRP | 0.61
RRIRHRPPRLPRPRPRPSPAPRP | 0.108
RRIRWRPPRLPRPRPRPDSWPRP | 0.251
RRIRSRPPRLPRPRPRPCPTPRP | -0.138
RRIRTRPPRLPRPRPRPYRCPRP | -0.123
RRIRRRPPRLPRPRPRPGHEPRP | 0.00414

Sequence | shrunken log2 fold change
RRIRTRPPRLPRPRPRPPWSPRP | 0.194
RRIRDRPPRLPRPRPRPPCKPRP | -0.129
RRIRIRPPRLPRPRPRPTVSPRP | -0.0336
RRIRYRPPRLPRPRPRPGVTPRP | -0.048
RRIRQRPPRLPRPRPRPTPQPRP | 0.89
RRIRIRPPRLPRPRPRPIAPPRP | -0.0686
RRIRARPPRLPRPRPRPVQLPRP | 0.101
RRIRHRPPRLPRPRPRPMSNPRP | 0.00049
RRIRDRPPRLPRPRPRPLQDPRP | 0.115
RRIRARPPRLPRPRPRPKNQPRP | 0.249
RRIRRRPPRLPRPRPRPYCWPRP | -0.474
RRIRCRPPRLPRPRPRPFQEPRP | -0.101
RRIRARPPRLPRPRPRPIALPRP | 0.0719
RRIRVRPPRLPRPRPRPCKSPRP | -0.214
RRIRYRPPRLPRPRPRPRYYPRP | -2.49
RRIRPRPPRLPRPRPRPESDPRP | 0.235
RRIRKRPPRLPRPRPRPQEMPRP | -0.00136
RRIRQRPPRLPRPRPRPVSNPRP | -0.0478
RRIRRRPPRLPRPRPRPDNCPRP | -0.113
RRIRSRPPRLPRPRPRPEGEPRP | 0.809
RRIRFRPPRLPRPRPRPYCQPRP | -0.131
RRIRPRPPRLPRPRPRPVNQPRP | 0.223
RRIRKRPPRLPRPRPRPECKPRP | 0.506
RRIRFRPPRLPRPRPRPRQYPRP | -0.465
RRIRSRPPRLPRPRPRPLGGPRP | 0.455

Sequence | shrunken log2 fold change
RRIRVRPPRLPRPRPRPNMGPRP | -0.11
RRIRWRPPRLPRPRPRPPGKPRP | 0.214
RRIRRRPPRLPRPRPRPMAWPRP | 0.0237
RRIRMRPPRLPRPRPRPYGGPRP | -1.22
RRIRNRPPRLPRPRPRPCHWPRP | 0.065
RRIRCRPPRLPRPRPRPKCCPRP | 0.0554
RRIRGRPPRLPRPRPRPGSQPRP | 0.722
RRIRGRPPRLPRPRPRPRHSPRP | 0.242
RRIRYRPPRLPRPRPRPDVLPRP | 0.0494
RRIRQRPPRLPRPRPRPDSCPRP | 0.0169
RRIRWRPPRLPRPRPRPMHMPRP | -0.287
RRIRWRPPRLPRPRPRPEILPRP | -0.0318
RRIRQRPPRLPRPRPRPGRLPRP | 0.0206
RRIRDRPPRLPRPRPRPDTIPRP | -0.0164
RRIRCRPPRLPRPRPRPRDMPRP | -0.167
RRIRLRPPRLPRPRPRPKYLPRP | -0.55
RRIRGRPPRLPRPRPRPLIAPRP | 1.27
RRIRRRPPRLPRPRPRPADDPRP | 0.213
RRIRERPPRLPRPRPRPMSIPRP | -0.239
RRIRQRPPRLPRPRPRPINQPRP | -0.314
RRIRKRPPRLPRPRPRPIIVPRP | 0.0373
RRIRARPPRLPRPRPRPHGEPRP | -0.00651
RRIRSRPPRLPRPRPRPRDEPRP | 0.242
RRIRVRPPRLPRPRPRPRIVPRP | 0.166
RRIRNRPPRLPRPRPRPVQQPRP | 0.171

Sequence | shrunken log2 fold change
RRIRVRPPRLPRPRPRPGMGPRP | 0.0724
RRIRFRPPRLPRPRPRPGIGPRP | -0.0363
RRIRHRPPRLPRPRPRPKHLPRP | -0.237
RRIRWRPPRLPRPRPRPKQYPRP | -0.266
RRIRRRPPRLPRPRPRPVEAPRP | 0.118
RRIRWRPPRLPRPRPRPCQMPRP | -0.0107
RRIRMRPPRLPRPRPRPVYYPRP | -0.123
RRIRHRPPRLPRPRPRPQTHPRP | -0.143
RRIRARPPRLPRPRPRPMFKPRP | -0.106
RRIRMRPPRLPRPRPRPVMNPRP | 0.196
RRIRVRPPRLPRPRPRPDFEPRP | 0.0704
RRIRWRPPRLPRPRPRPRTDPRP | 0.342
RRIRARPPRLPRPRPRPNIDPRP | -0.0883
RRIRFRPPRLPRPRPRPPMTPRP | -0.0559
RRIRQRPPRLPRPRPRPTWYPRP | -0.174
RRIRYRPPRLPRPRPRPEKAPRP | 0.00447
RRIRWRPPRLPRPRPRPHRWPRP | 0.103
RRIRQRPPRLPRPRPRPFTGPRP | -0.0255
RRIRHRPPRLPRPRPRPCVFPRP | -0.0413
RRIRRRPPRLPRPRPRPTPNPRP | 0.945
RRIRFRPPRLPRPRPRPGLPPRP | 0.255
RRIRLRPPRLPRPRPRPWRDPRP | -0.252
RRIRYRPPRLPRPRPRPNRRPRP | -0.023
RRIRRRPPRLPRPRPRPLYQPRP | -0.315
RRIRTRPPRLPRPRPRPIVVPRP | -9.82e-05

Source: the supplement of paper PMC9112550, “Optimization of the antimicrobial peptide Bac7 by deep mutational scanning” (BMC Biology, 2022)
